Laboratory results taken from the nanobody polyreactivity screen of Harvey et al. (2022).

Assay: yeast display, Sf9 membrane polyspecificity reagent, FACS + sequencing; frameworks hold sequencing errors
Procedure, shortened: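 Galactose induction of a Saccharomyces cerevisiae BJ5465 synthetic nanobody display library ran 36–48 hours. The cells were then stained for 1 hour at 4 °C with 10% biotinylated, detergent-solubilized Sf9 membrane reagent, pulled down on streptavidin microbeads and FACS-sorted into low and high (top ~1%) gates on expression and reagent-binding fluorescence. Labels for polyreactivity follow the gate of origin.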

Sequence | polyreactivity (PSR sort gate)
QVQLVESGGGLVQAGGSLRLSCAASGGIFGYYAMGWYRQAPGTEREFVAAITARGGRTYYADSVKGRFTISRDNAKNTVYLQMNSLKPEDTAVYDCAAYSPVWGRYYHRVERDYWGQGTQVTVSS | high polyreactivity
QVQLVESGGGLVQAGGSLRLSCAASGGIFGYYVMGRYRQAPGKERELVAVITRGGSTNYADSVKGRFTISRDNAKNTVYLQMNSLKPEDTAVYYCAKDVPYRRVRSEYWGQGTQVTVSS | low polyreactivity
QVQLVESGGGLVQAGGSLRLSCAASGGIFGYYVMGWYRQAPGKERELVAVITRGGSTNYADSLKGRFTISRDNAKNTVYLQMNSLKPEDTAVYYCNAGPAGYYDYDYWGQGTQVTVSS | low polyreactivity
QVQLVESGGGLVQAGGSLRLSCAASGGIFHNYAMGWYRQAPGKERELVAAITTSDGSTYYEDSVKGRFTISRDIAKNTVYLEMNSLKPEDTAVYYCNAEYLYTVYFDDGGFIMDYWGQGTQVTVSS | low polyreactivity
QVQLVESGGGLVQAGGSLRLSCAASGGIFIGYAMGWYRPAPGKERELVARIRSSGGTTYYADSVKGRFTISRDNAKNTVYLQMNSLKPEDTAVYYCAKRTSSSWAYGPYYYWGQGTQVTVSS | high polyreactivity
QVQLVESGGGLVQAGGSLRLSCAASGGIFLPYAMGWYRQAPGKERELVAGITTSGGSTYYADSVKGRFTISRDNAKNTVYLQMNSLKPEDTAVYYCAKKSSLFKHVVRYDYWGQGTQVTVSS | low polyreactivity
QVQLVESGGGLVQAGGSLRLSCAASGGIFNINAMGWYRQAPGKERELVAGINWSDTGTYYADSVKGRFTISRDNAKNTVYLQMNSLKPEDTAVYDCAVSGYPVYITYVSYDYDYWGQGTQVTVSS | low polyreactivity
QVQLVESGGGLVQAGGSLRLSCAASGGIFNVNAMGWYRQAPWKERELVAAIDWSSSSTDYADSVKGRFTISRDNAKNTVYLQMNSLKPEDTAVYYCAKLAGYSPTFEYWGQGTQVTVSS | low polyreactivity
QVQLVESGGGLVQAGGSLRLSCAASGGIFPAYAMGWYRQAPGKERELVASISANGGRTYYADSVKGRFTISRDNAKNTVYLQMNSLKPEDTAVYYCNASSRSGSWRFYYWGQGTQVTVSS | high polyreactivity
QVQLVESGGGLVQAGGSLRLSCAASGGIFPGYAMGWYRQAPGKERELVAAISGSGSSTYYADSVKGRFTISRDNAKNTVYLQMNSLKPEDTAVYYCAVYYTRGYDYWGQGTQVTVSS | high polyreactivity
QVQLVESGGGLVQAGGSLRLSCAASGGIFPVYAMGWSRQAPGKERELVATITSDGDTNYADSVKGRFTISRDNAKNTVYLQMNSLKPEDTAVYYCNKDLDYIIVQPHSPELEYWGQGTQVTVSS | low polyreactivity
QVQLVESGGGLVQAGGSLRLSCAASGGIFPWNAMGWYRQAPGKERELVAAIDNTDGTHYADSVKGRFTISRDNAKNTVYLQMNSQKPEDTAVYYCAAEYYYFVYPFYNWGYEYWGQGTQVTVSS | high polyreactivity
QVQLVESGGGLVQAGGSLRLSCAASGGIFQLNAMGWYSQAPGKERELVAAISGSGGSTYYADSVKGRFTISRDNAKNTVYLQMNSLKPEDTAVYYCAVRLTITDYDYWGQGTQVTVSS | low polyreactivity
QVQLVESGGGLVQAGGSLRLSCAASGGIFRRYPMGWYRQATGKERELVAAISKRGGSTYYADSVKGRFTISRDNAKNTVYLQMNSLKPEDTAFYYCAKQRGGQPRSSTYYYWGQGTQVTVSS | high polyreactivity
QVQLVESGGGLVQAGGSLRLSCAASGGIFRVYAMGWYRQAPGKERELVAAISRSGSSTYYADSVKGRFTISRDNAKNTVYLQMNSLKPEDTAVYYCNAYSQYWLGNNYWGQGSQVTVSS | high polyreactivity
QVQLVESGGGLVQAGGSLRLSCAASGGIFRYYAMGLYRQAPGKERELVASIRRSGGRTYYADSVKGRFTISRDNAKYTVYFQMNSLKPEDTAVYYCNADRLIVTMNSWGQGTQVTVSS | low polyreactivity
QVQLVESGGGLVQAGGSLRLSCAASGGIFRYYAMGWYRQAPGKERELVAAISRSTRTYYADSVKGRFTISRDNAKITVYLQMNSLKPEDTEVYYCAAKYVSRRYSRYNYWGQGTQVSVSS | high polyreactivity
QVQLVESGGGLVQAGGSLRLSCAASGGIFSAYDMGWYRQAPGTERELVAAINSGGSTNYADSVKGRFTISRDNAKNTVYLQMNSLKPEDTAVYYCAAAKVSWFGLKYYYWGQGTQVTVSS | high polyreactivity
QVQLVESGGGLVQAGGSLRLSCAASGGIFSAYSMGWYRKAPGKERELVASITTDGGITYYADSVKGRFTISRDNAKNTVYLQMNSLKPEDTAVYYCAVLQYYYPYYYWGQGTQVTVSS | low polyreactivity
QVQLVESGGGLVQAGGSLRLSCAASGGIFSGNDMGWYRQAPGKERELVATITSDGSTNYSDSVKGRFTYSRDNAKNTVYLQMNSLKPEDTAVYYCAADGLYWWMYYWGQGTQVTVSS | low polyreactivity
QVQLVESGGGLVQAGGSLRLSCAASGGIFSRYAMGWYRQAPGKEREFVAAISFSGASTYYADSVKGRFTISRDNAKYTVYLQMNSLKPEDTAVYYCAAYWDAEGRRYTRLDYWGQGTQVTVSS | low polyreactivity
QVQLVESGGGLVQAGGSLRLSCAASGGIFSTYTMGWSRQAPGKERELVAAITTGNSTYYADSVKGRFTISRDNAKNTVYLQMNSLKPEDTAVYYCAAFAASRDYYRRLIHDGYDYWGQGTQVTVSS | low polyreactivity

Sequence | polyreactivity (PSR sort gate)
QVQLVESGGGLVQAGGSLRLSCAASGGIFSYAMGWSRQAPGKERELVADINSDGSTTYADSVKGRFTISRDNAKNTVYLQMNSLKPEDTAVYYCAVDVSVNWPLLERYEYWGQGTQVTVSS | low polyreactivity
QVQLVESGGGLVQAGGSLRLSCAASGGIFSYAMGWYRQAPGKERELVAAISRSAGITYYADSVKGRFTISRDNAKNTVYLQMNSLKPEDTAVYYCAASYYSYLYYSWGQGTQVTVSS | high polyreactivity
QVQLVESGGGLVQAGGSLRLSCAASGGIFSYNDMGWYRQAPGKERELVAAISSGGGGITYYADSVKGRFTISRDNAKNTVYLQMNSLKPEDTAVYYCNVVPDFRAAYSSQYYYWGQGTQVTVSS | low polyreactivity
QVQLVESGGGLVQAGGSLRLSCAASGGIFSYYAMGWYRQAHGKERELVAAISGSGGRTYYADSVKGRFTISRDNAKNTVYLQMNSLKPEDTAVYYCAADSLSYSWEYYYWGQGTQVTVSS | high polyreactivity
QVQLVESGGGLVQAGGSLRLSCAASGGIFSYYTMGWYRQAPGKERELVARITTGGSTNYADSVKGRFTISRDNAKNTVYLQMNSLKPEDTAVYYCAATGPKYWLTWSSYTRYDYWGQGTQVTVSS | high polyreactivity
QVQLVESGGGLVQAGGSLRLSCAASGGIFTINAMGWYRQAPGKERELVAAITYGGTSTNYADSVKGRFTISRDNAKNTVYLQMNSLKPEDTAVYYCAKLPNLPGDYWGQGTQVTVSS | low polyreactivity
QVQLVESGGGLVQAGGSLRLSCAASGGIFTIYAMGWYRQAPGKETELVASITGGSGSTYYADSVKGRFTISRDNAKNTVYLQMNSLKPEDTAVYYCARETYRRYGAYDYWGQGTQVTVSS | low polyreactivity
QVQLVESGGGLVQAGGSLRLSCAASGGIFTLYVMGWYRQEPGKERELVAAISRTGGSTYYADSVKGRLTISRDNAKNTVYLQMNSLKPEDTAVYYCDAERGVDDSARYGDYDYWGQGTQVTVSS | low polyreactivity
QVQLVESGGGLVQAGGSLRLSCAASGGIFTPYAMGWYIQAPGKEREFVAGIRWSGVSTSYADSVKGRFTISRDNAKNTVYFQMNSLKPEDTAVSYCAATTHRWWVTFDYWGQGTQVTVSS | low polyreactivity
QVQLVESGGGLVQAGGSLRLSCAASGGIFVFYAMGWYRQAPGKERELVAAITYRGGSTSYADSVKRRFTISRDNAKNTVYLQMNSLKPEDTAVYYCNARRRTWYGFYYWGQGTQVTVSS | high polyreactivity
QVQLVESGGGLVQAGGSLRLSCAASGGIFVRYAMGWYRPAPGKERELVAAISSSGDRTYYADSVKGRFTISRDTAKNTVYLQMNSLKPEDTAVYYCNADRGHDKVDYWGQGTQVTVSS | low polyreactivity
QVQLVESGGGLVQAGGSLRLSCAASGGIFVSYAMGWYRQAPGKERELVAAITSGGGTSYADSVKGRFTISRDNAKNTVYLQLTSLKPEDTAVYYCAARFLWSVFGRKGGYWGQGTQVTVSS | low polyreactivity
QVQLVESGGGLVQAGGSLRLSCAASGGIFWYYAMGWYRQAPGKERELVAGISRGGGTYYADSVKGRFTISRDNAKNTVYLQMNSLKPEDTAVYYCAVDGRYAYAYEYWGQGTQVTVSS | low polyreactivity
QVQLVESGGGLVQAGGSLRLSCAASGGIFWYYTMGWYRQAPGKERELVATISSGGRTYYADSVKGRFTISRDNAKNTVYLQMNSLKPEDTAVYYCAAVGWYNDYYWGQGTQVTVSS | high polyreactivity
QVQLVESGGGLVQAGGSLRLSCAASGGIFYAYDMGWYRQAPGKERELVAAITWTGGTTYYADSVKGRFTISRDNAKNTVYLQMNSLKPEDTAVYYCAADDGTNSTARDKDDYYYWGQGTQVTVSS | low polyreactivity
QVQLVESGGGLVQAGGSLRLSCAASGGIFYFNAMGWYRQAPWKERELVAAIDQRGDTTYYADTVKGRFTISRDNAKNTVYLQMNSLKPEDTAVYYCAAEIYFLGDDYWGQGTQFTVSS | high polyreactivity
QVQLVESGGGLVQAGGSLRLSCAASGGIFYLNAMGWYRQAPGKERELVAAISSGVSTYYADSVKGSFTISRDNAKNTVYLKMNSLKPEDTAVYYCNADYNYPAWVGSWWDYDYWGQGTQVTVTS | low polyreactivity
QVQLVESGGGLVQAGGSLRLSCAASGGIFYLYVMGWYRQAPGKERELVAAITSRGGRTYYADSVKGRFTISRDNAKNTVYLQMNSLKPEDTAVYYCNASQSDIFDYDYWGQGTQVTVSS | low polyreactivity
QVQLVESGGGLVQAGGSLRLSCAASGGIFYRYAMGWYRQAPGKERELVAVISRSGSTYYADSVKGRFTISRDNAKNTVYLQMNSQKPEDTAVYYCNKYGQVPGYFSLDYWGQGTQVTVSS | high polyreactivity
QVQLVESGGGLVQAGGSLRLSCAASGGIFYTYAMGWYRQAPGKERELVAGINWSGSSTYYADSVKGRFTISRDNAKNTVYLQMNSLKPEDTAVYYCAARSYSYSTGDYWGQGTQVTVSS | low polyreactivity
QVQLVESGGGLVQAGGSLRLSCAASGGIFYYYAMGWYRQAPGKERQLVAGISADGGSTYYADSVKGRFTISRDNAKNTVYLQMNSLKPEDTAVYYCAADGQFDDYYSLAFDYDYWGQGTQVTVSS | high polyreactivity
